Reference: paper PMC11088064 (2024)

B1: His-tagged mPD-1 (PD1-M5228, ACRO Biosystem) (receptor)
chain: LEVPNGPWRSLTFYPAWLTVSEGANATFTCSLSNWSEDLMLNWNRLSPSNQTEKQAAFCNGLSQPVQDARFQIIQLPNRHDFHMNILDTRRNDSGIYLCGAISLHPKAKIEESPGAELVVTERILETSTRYPSPSPKPEGRFQGM
B2: GNUV201 (antibody, V domains shown)
VH: QVQLVQSGAEVKKPGASVKVSCKASGYTFTGYWMHWVRQAPGQGLEWIGMIHPNSDTTTYNEKFKNRVTMTRDTSISTAYMELSRLRSDDTAVYYCAGTDQAAWFAFWGQGTTVTVSS
VL: DIVMTQTPLSLSVTPGQPASISCRSSQNIVHSQGDTYLEWYLQKPGQSPQLLIYKVSKRFSGVPDRFSGSGSGTDFTLKISRVEAEDVGVYYCFQGSHVPWTFGGGTKVEIK

Key:
RMP1-14 [1] = assay: SPR; pH 6.0
RMP1-14 [2] = assay: SPR; pH 7.4
[3] = biological target: T1, hPD-1 (PD-1-H5221, ACRO Biosystems) (human, UniProt Q15116 25-170); assay: SPR; pH 6.0
[4] = biological target: B1; assay: SPR; pH 6.0
[5] = biological target: B1; assay: SPR; pH 6.0
[6] = biological target: T1, hPD-1 (PD-1-H5221, ACRO Biosystems); assay: SPR; pH 7.4
[7] = biological target: B1; assay: SPR; pH 7.4
[8] = biological target: T1, hPD-1 (PD-1-H5221, ACRO Biosystems); assay: SPR; pH 7.4; remark: listed apart in the source
[9] = biological target: B1; assay: SPR; pH 7.4

T1 sequence (Q15116 25-170): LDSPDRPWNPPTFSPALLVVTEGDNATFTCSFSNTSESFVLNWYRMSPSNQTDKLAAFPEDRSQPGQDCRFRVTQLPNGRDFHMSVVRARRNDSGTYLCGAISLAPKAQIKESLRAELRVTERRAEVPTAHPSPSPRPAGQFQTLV

Row | Kd (RMP1-14 [1]) | koff (RMP1-14 [1]) | Kd (RMP1-14 [2]) | koff (RMP1-14 [2]) | koff [3] | koff [4] | Kd [5] | koff [6] | koff [7] | Kd [8] | Kd [9] | Binder
1 | 2.88 nM | 0.00025 s⁻¹ | 2.43 nM | 0.00028 s⁻¹ | – | – | – | – | – | – | – | B1
2 | – | – | – | – | 3e-05 s⁻¹ | 5e-05 s⁻¹ | 0.18 nM | 6e-05 s⁻¹ | 9e-05 s⁻¹ | 0.41 nM | 0.38 nM | B2
